Experimental data reported in the supplement of paper PMC9112550, “Optimization of the antimicrobial peptide Bac7 by deep mutational scanning” (BMC Biology, 2022).

test system: Escherichia coli TOP10; test: shrunken log2 fold change of peptide-encoding DNA abundance (4.5 h post-induction vs induction); higher = less antimicrobial activity (less host growth inhibition); details: time post-induction: 4.5 h; library: site-saturation at positions 5, 18, 19, 20
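Also: peptides expressed intracellularly from a pBAD plasmid library in pooled LB shake-flask culture, induced with 0.3% L-arabinose, DNA abundance read by NGS, three biological replicates, DESeq2 with apeglm shrinkage.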

Sequence | shrunken log2 fold change
RRIRVRPPRLPRPRPRPGCQPRP | -0.0161
RRIRVRPPRLPRPRPRPGCTPRP | -0.246
RRIRVRPPRLPRPRPRPGCVPRP | 0.267
RRIRVRPPRLPRPRPRPGDCPRP | 0.404
RRIRVRPPRLPRPRPRPGDTPRP | -0.0412
RRIRVRPPRLPRPRPRPGEGPRP | 0.62
RRIRVRPPRLPRPRPRPGESPRP | 0.0694
RRIRVRPPRLPRPRPRPGEWPRP | -0.00804
RRIRVRPPRLPRPRPRPGFRPRP | 0.205
RRIRVRPPRLPRPRPRPGFWPRP | 0.587
RRIRVRPPRLPRPRPRPGGAPRP | 0.603
RRIRVRPPRLPRPRPRPGGDPRP | 0.0318
RRIRVRPPRLPRPRPRPGGNPRP | -0.0392
RRIRVRPPRLPRPRPRPGGRPRP | 0.317
RRIRVRPPRLPRPRPRPGHFPRP | 0.136
RRIRVRPPRLPRPRPRPGHKPRP | -0.17
RRIRVRPPRLPRPRPRPGHNPRP | -0.131
RRIRVRPPRLPRPRPRPGHPPRP | 0.146
RRIRVRPPRLPRPRPRPGHTPRP | -0.000319
RRIRVRPPRLPRPRPRPGHVPRP | 0.0316
RRIRVRPPRLPRPRPRPGKVPRP | -0.272
RRIRVRPPRLPRPRPRPGLEPRP | 0.0118
RRIRVRPPRLPRPRPRPGLIPRP | -0.359
RRIRVRPPRLPRPRPRPGLMPRP | 0.0219
RRIRVRPPRLPRPRPRPGPYPRP | -0.0621

Sequence | shrunken log2 fold change
RRIRVRPPRLPRPRPRPGQTPRP | -0.00176
RRIRVRPPRLPRPRPRPGRLPRP | -0.0194
RRIRVRPPRLPRPRPRPGRTPRP | 0.117
RRIRVRPPRLPRPRPRPGRYPRP | 0.303
RRIRVRPPRLPRPRPRPGWAPRP | 0.228
RRIRVRPPRLPRPRPRPGWFPRP | 0.22
RRIRVRPPRLPRPRPRPGWPPRP | 0.433
RRIRVRPPRLPRPRPRPGYQPRP | -0.00841
RRIRVRPPRLPRPRPRPHCPPRP | -0.173
RRIRVRPPRLPRPRPRPHDAPRP | -0.141
RRIRVRPPRLPRPRPRPHDQPRP | 0.134
RRIRVRPPRLPRPRPRPHEPPRP | -0.0412
RRIRVRPPRLPRPRPRPHGDPRP | 0.00703
RRIRVRPPRLPRPRPRPHHCPRP | -0.74
RRIRVRPPRLPRPRPRPHHQPRP | -0.427
RRIRVRPPRLPRPRPRPHHSPRP | -0.593
RRIRVRPPRLPRPRPRPHKCPRP | -0.274
RRIRVRPPRLPRPRPRPHKEPRP | 0.0216
RRIRVRPPRLPRPRPRPHLRPRP | 0.248
RRIRVRPPRLPRPRPRPHNYPRP | -0.181
RRIRVRPPRLPRPRPRPHRAPRP | 0.101
RRIRVRPPRLPRPRPRPHTAPRP | -0.00836
RRIRVRPPRLPRPRPRPHTFPRP | -0.105
RRIRVRPPRLPRPRPRPHWGPRP | -0.0382
RRIRVRPPRLPRPRPRPHYYPRP | 0.0781

Sequence | shrunken log2 fold change
RRIRVRPPRLPRPRPRPIDLPRP | -0.417
RRIRVRPPRLPRPRPRPIDNPRP | -0.447
RRIRVRPPRLPRPRPRPIDSPRP | -0.0289
RRIRVRPPRLPRPRPRPIDVPRP | -0.0749
RRIRVRPPRLPRPRPRPIDWPRP | 0.224
RRIRVRPPRLPRPRPRPIEMPRP | -0.267
RRIRVRPPRLPRPRPRPIFDPRP | -0.0222
RRIRVRPPRLPRPRPRPIGMPRP | 0.211
RRIRVRPPRLPRPRPRPIGYPRP | 0.117
RRIRVRPPRLPRPRPRPIHAPRP | 0.098
RRIRVRPPRLPRPRPRPIILPRP | -0.483
RRIRVRPPRLPRPRPRPIIVPRP | 0.0713
RRIRVRPPRLPRPRPRPIKIPRP | -0.251
RRIRVRPPRLPRPRPRPILCPRP | 0.0143
RRIRVRPPRLPRPRPRPILSPRP | -0.134
RRIRVRPPRLPRPRPRPIMEPRP | 0.0384
RRIRVRPPRLPRPRPRPINIPRP | -0.347
RRIRVRPPRLPRPRPRPIPNPRP | 0.0329
RRIRVRPPRLPRPRPRPIPYPRP | -0.0701
RRIRVRPPRLPRPRPRPIRKPRP | -0.165
RRIRVRPPRLPRPRPRPISWPRP | 0.18
RRIRVRPPRLPRPRPRPITCPRP | -0.324
RRIRVRPPRLPRPRPRPIVGPRP | 0.0676
RRIRVRPPRLPRPRPRPIWPPRP | -0.0228
RRIRVRPPRLPRPRPRPIYKPRP | -0.535
